Laboratory results as given in article PMC8336524, “Yeast Bromodomain Factor 1 and Its Human Homolog TAF1 Play Conserved Roles in Promoting Homologous Recombination” (Advanced Science, 2021).

B1: GST‐Bdf1 residues 1–317 (domain or fragment, yeast, UniProt P35817 1-317, looked up)
chain: MTDITPVQNDVDVNGNNVNDDVSSNLKRPIDQGDPSNGLAEEENPANNQLHLKKARLDGDALTSSPAGLAENGIEGATLAANGENGYNATGSGAEDEQQGLKKEEGGQGTKQEDLDENSKQELPMEVPKEPAPAPPPEPDMNNLPQNPIPKHQQKHALLAIKAVKRLKDARPFLQPVDPVKLDIPFYFNYIKRPMDLSTIERKLNVGAYEVPEQITEDFNLMVNNSIKFNGPNAGISQMARNIQASFEKHMLNMPAKDAPPVIAKGRRSSAQEDAPIVIRRAQTHNGRPKRTIHPPKSKDIYPYESKKPKSKRLQQA
notes: source: E. coli (BL21), pGEX4T3; immobilized onto GSH‐sepharose beads
B2: GST‐Bdf1 residues 1–295 (domain or fragment, yeast, UniProt P35817 1-295, looked up)
chain: MTDITPVQNDVDVNGNNVNDDVSSNLKRPIDQGDPSNGLAEEENPANNQLHLKKARLDGDALTSSPAGLAENGIEGATLAANGENGYNATGSGAEDEQQGLKKEEGGQGTKQEDLDENSKQELPMEVPKEPAPAPPPEPDMNNLPQNPIPKHQQKHALLAIKAVKRLKDARPFLQPVDPVKLDIPFYFNYIKRPMDLSTIERKLNVGAYEVPEQITEDFNLMVNNSIKFNGPNAGISQMARNIQASFEKHMLNMPAKDAPPVIAKGRRSSAQEDAPIVIRRAQTHNGRPKRTIHP
notes: as for B1

Tests used:
[1] = molecular target: acetylated H4 peptide (1–22 aa) (UniProt P02309); experiment: ITC; protein (≈50 µM DBD or 2YF‐DBD, ≈20 µM TAF1‐DBD) titrated with H4 peptide (≈1 mM or 0.5 mM) at 25 °C; 100 mM NaCl, 50 mM Tris‐HCl pH 7.5; 19 injections; One Set of Sites model
6xHis‐Rfa1 = molecular target: T1, 6xHis‐Rfa1 (yeast, UniProt P22336 1-621); experiment: pull-down; GST or GST fusion proteins immobilized on GSH‐sepharose beads, incubated with His‐tagged proteins at 4 °C for 4 h; wash 20 mM Tris–HCl pH 7.4, 200 mM NaCl, 0.5 mM EDTA; Western blot with anti‐His antibody; conditions: both partners purified
T1 construct: Rfa1, subunit of Replication Protein A (RPA), yeast; also called RPA (in the text on the truncations); source: E. coli (BL21), pET30a(+)
T1 sequence (P22336 whole entry, the tested form may be a part): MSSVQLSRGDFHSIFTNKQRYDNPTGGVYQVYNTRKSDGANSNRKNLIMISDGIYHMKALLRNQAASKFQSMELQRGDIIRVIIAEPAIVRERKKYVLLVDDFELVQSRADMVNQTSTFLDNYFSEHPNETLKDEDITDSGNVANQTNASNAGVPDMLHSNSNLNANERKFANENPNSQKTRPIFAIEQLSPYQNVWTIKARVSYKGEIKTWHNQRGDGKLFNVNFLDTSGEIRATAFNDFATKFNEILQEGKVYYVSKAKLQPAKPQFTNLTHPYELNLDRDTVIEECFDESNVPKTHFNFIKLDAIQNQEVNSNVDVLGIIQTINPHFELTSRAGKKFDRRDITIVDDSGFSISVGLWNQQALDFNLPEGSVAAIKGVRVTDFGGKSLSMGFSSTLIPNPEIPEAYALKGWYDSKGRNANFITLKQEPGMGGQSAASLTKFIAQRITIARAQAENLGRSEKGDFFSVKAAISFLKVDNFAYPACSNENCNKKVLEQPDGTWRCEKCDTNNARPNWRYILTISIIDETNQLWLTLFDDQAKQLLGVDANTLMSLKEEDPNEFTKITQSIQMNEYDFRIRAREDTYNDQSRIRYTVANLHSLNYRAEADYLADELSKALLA

Kd [1] | binding result (6xHis‐Rfa1) | Molecule
6 µM |  | DBD of Bdf1 used for ITC (domain or fragment)
5 µM |  | TAF1‐DBD used for ITC (domain or fragment)
 | binds | B1
 | binds | B2
